“And” between values parts separate entries of the source, which are not always exact repeats. Equal values may be shown once.

The data set is described as follows: Small angle X-ray scattering (SAXS) of beta-casein micellar solutions. Type of data set: physicochemical. The following applies: for aggregation number: pH 6.7, 0.05M NaCl. Here is the method: Small Angle X-ray Scattering (SAXS): The small angle x-ray scattering equipment consisted of a SAXSess camera (Anton-Paar, Graz, Austria) connected to an x-ray generator (Philips, PW1730/10) operating at 40 kV and 50 mA with a sealed-tube Cu anode. A Göbel mirror was used to convert the divergent polychromatic x-ray beam into a focused line-shaped beam of Cu Kα radiation (λ=0.154 nm). The 2D scattering pattern was recorded by a PI-SCX fused fiber optic taper CCD camera from Princeton Instruments, which is a division of Roper Scientific, Inc. (Trenton, N.J., USA). The used CCD detector features a 2084×2084 array with 24×24 μm pixel size (chip size: 50×50 mm). The CCD was operated at −30° C. with 10° C. water-assisted cooling to reduce the thermally generated charge. Cosmic ray correction and background subtraction were performed on the 2D image before further data processing. The 2D image was integrated into the one-dimensional scattering function within a band of 10 mm. The measurement time was 30 min for each scattering curve (6 images of 5 minutes were taken to assist the cosmic ray correction).
Determination of the Beta-Casein Assemblies Molecular Weights.
The molecular weight of the scattering aggregates were calculated according to Eq. 1:
[formula] where M is the molecular weight, dΣ(0)/dΩ (cm^−1) the forward scattering intensity at q=0, c (g/cm^3) the beta-casein concentration, NA the Avogadro number, and ΔρM (cm/g) the scattering length difference per mass, given by: ΔρM=Δρ v (2)
The scattering length difference Δρ (cm^−2) was calculated using the known chemical composition of the protein and the solvent, and v (cm^3/g), the specific volume of the protein in the solution that was calculated via density measurement of the solvent and the solution. The micelle aggregation number was then calculated by dividing the molecular weight of the micelles determined with Eq. 1, by the molecular weight of a single protein molecule.
For a particle of arbitrary shape with a scattering density difference of Δρ(r), the pair distance distribution function p(r) (PDDF) is given by: p(r)=r^2Δ ρ^2(r) (3) where Δ ρ^2(r) is the convolution square of Δρ(r) averaged for all directions in space. The PDDF is related to the scattered intensity I(q) by a Fourier transformation, and it enables the determination of the overall shape and size of the scattering objects.
[formula] where q is the magnitude of the scattering vector q, defined as
[formula] λ is the wavelength of the incident radiation and θ is the angle between the scattered and incident beam. The function ƒ(r)=p(r)/r (6) is useful to identify flat plate-like particles, although it has no direct physical meaning. For lamellae, this function starts with a linearly increasing part and becomes almost flat when r is equal to the thickness of the lamella. For flat particles with a finite base area, the outer part decreases linearly because of boundary losses. The thickness of the lamella can then be read from the transition point. […] The standard error of the analytical ultracentrifugation data is 5%, and that of the Rg is 4%. The analysis supports the statistical significance and validity of the results.
• Characterization of the beta-casein micelles by SAXS: We have applied SAXS measurements to determine the shape and dimensions of the micelles at low pH and at neutral pH, more precisely, and to evaluate the micelle molecular weight (i.e., the aggregation number). The scattering curves of 20 mg/mL beta-casein in lactic acid solution (pH 2.6, IS 0.0022) at different temperatures are shown in FIG. 3a. […] Consequently, the calculated Pair Distance Distribution Functions (PDDF), are also similar (FIG. 3b). The maximum micelle dimension is approximately 25 nm at all temperatures. The area under the PDDF curve, which is proportional to the weight of one particle, is almost constant. To calculate the aggregation number, the density of the solvent and the solution was measured at various temperatures (Table 2). […]

B1: beta-casein: lyophilized bovine beta-casein (~24 kDa milk protein) self-assembled into nano-sized micelles at low or neutral pH (protein, UniProt P02666 16-224, looked up)
Beta-casein: RELEELNVPGEIVESLSSSEESITRINKKIEKFQSEEQQQTEDELQDKIHPFAQTQSLVYPFPGPIPNSLPQNIPPLTQTPVVVPPFLQPEVMGVSKVKEAMAPKHKEMPFPKYPVEPFTESQSLTLTDVENLHLPLPLLQSWMHQPHQPLPPTVMFPPQSVLSLSQSKVLPVPQKAVPYPQRDMPIQAFLLYQEPVLGPVRGPFPIIV
As to B1, the maximum micelle dimension result (20 mg/mL, pH 2.6, IS 0.0022, all temperatures 4-40 °C) is listed as “approximately 25 nm”. For the same molecule, the aggregation number runs as follows: (20 mg/mL, 1 °C) 7; (20 mg/mL, 60 °C) 210. The Nagg runs as follows: (pH 2.6, 4 °C, 2 wt % beta-casein, SAXS) 8; (pH 2.6, 16 °C, SAXS) 10; (pH 2.6, 25 °C, SAXS) 11; (pH 2.6, 40 °C, SAXS) 9. The aggregation state entry (pH 2.6, 25 °C, 0.1 wt %) is listed as “monomers” and the aggregation state entry (pH 2.6, 25 °C, 0.25 wt %) is listed as “dimers”. Moreover, the CMC (pH 2.6, 25 °C, SAXS) is 0.1-0.2 wt %. Besides, the “thickness of the particles” value (pH 2.6, all temperatures, from f(r) transition point) is on record as roughly 3.5 nm. The “Micelle Dimensions” value (pH 2.6, as a function of temperature 4-40 °C) is given as “Constant”. The “typical sizes of beta-casein micelles” value (pH 7.0, ionic strength 0.1, depending on protein concentration) was 13-15 nm and 22-25 nm.

For the origin of these results see patent US8865222B2, “Beta-casein assemblies for enrichment of food and beverages and methods of preparation thereof” (Technion Research and Development Foundation Ltd., priority 2008, dated 2014).
